What was measured:
[1] = molecular target: integrin α6β1 (human (endogenous in FHCC98 and SMMC-7721)) (UniProt P05556)
[2] = molecular target: integrin α6β1 (human (endogenous in FHCC98 and SMMC-7721)) (UniProt P05556); remark: listed apart in the source
[3] = molecular target: integrin α6β1 (human (endogenous in FHCC98 and SMMC-7721)) (UniProt P05556); remark: listed apart in the source
[4] = molecular target: integrin α6β1 (human (endogenous in FHCC98 and SMMC-7721)) (UniProt P05556); remark: listed apart in the source

Chain of UniProt P05556 (P05556 whole entry, looked up): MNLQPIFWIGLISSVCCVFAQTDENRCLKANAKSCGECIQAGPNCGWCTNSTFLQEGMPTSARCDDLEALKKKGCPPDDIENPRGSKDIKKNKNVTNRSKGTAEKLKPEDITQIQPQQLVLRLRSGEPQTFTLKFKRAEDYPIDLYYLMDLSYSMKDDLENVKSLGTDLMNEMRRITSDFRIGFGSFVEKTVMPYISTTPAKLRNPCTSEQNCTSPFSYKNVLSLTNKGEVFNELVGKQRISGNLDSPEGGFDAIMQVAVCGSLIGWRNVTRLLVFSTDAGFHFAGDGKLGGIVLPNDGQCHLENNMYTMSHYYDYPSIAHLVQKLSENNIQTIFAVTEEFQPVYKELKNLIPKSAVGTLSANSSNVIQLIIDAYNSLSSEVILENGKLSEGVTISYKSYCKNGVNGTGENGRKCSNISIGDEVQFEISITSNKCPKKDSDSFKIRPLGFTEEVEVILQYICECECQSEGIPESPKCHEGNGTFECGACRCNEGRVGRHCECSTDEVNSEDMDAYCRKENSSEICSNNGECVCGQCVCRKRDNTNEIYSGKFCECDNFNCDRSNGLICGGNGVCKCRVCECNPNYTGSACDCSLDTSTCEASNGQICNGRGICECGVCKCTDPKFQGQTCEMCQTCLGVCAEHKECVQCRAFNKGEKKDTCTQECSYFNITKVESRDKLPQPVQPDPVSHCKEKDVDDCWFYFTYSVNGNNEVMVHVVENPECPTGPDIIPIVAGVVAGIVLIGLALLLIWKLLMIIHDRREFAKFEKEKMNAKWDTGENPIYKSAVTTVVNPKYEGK

- Matrigel invasion of FHCC98 cells, reduction of invasive cell numbers versus the blank group; sncRNA + GoH3 + 3S3 [1]: 34.9%
- Matrigel invasion of FHCC98 cells, reduction of invasive cell numbers versus the blank group; sncRNA + anti-α6 mAb GoH3 [1]: 32.4%
- Matrigel invasion of FHCC98 cells, reduction of invasive cell numbers versus the blank group; sncRNA + anti-β1 mAb 3S3 [1]: 31.1%
- gelatin zymography, reduction of the density of MMPs of FHCC98 cells versus the blank group; sncRNA + GoH3 + 3S3 [2]: 29.1%
- gelatin zymography, reduction of the density of MMPs of FHCC98 cells versus the blank group; sncRNA + anti-α6 mAb GoH3 [2]: 32.5%
- gelatin zymography, reduction of the density of MMPs of FHCC98 cells versus the blank group; sncRNA + anti-β1 mAb 3S3 [2]: 34.8%
- Matrigel invasion of 7721 cells, reduction of invasive cell numbers versus the blank control group; anti-α6 mAb [3]: 27.2%
- gelatin zymography, reduction of MMP density of 7721 cells versus the blank control group; anti-α6 mAb [4]: 22.8%
- gelatin zymography, reduction of the density of MMPs of FHCC98 cells versus the blank control group; anti-α6 mAb [4]: 18.8%
Substance: HAb18G/CD147 (from UniProt P35613 22-385) (natural protein)

Source: article PMC2760576
